The target of the assay is hRTL (Chondrilla australiensis tetramer lectin) (Chondrilla australiensis). Kind of assay: SEC + other: SDS-PAGE; gel permeation chromatography on Shodex KW 402.5-4F (HPLC, 0.33 mL/min) in 50 mM sodium bicarbonate in saline, 60 kDa; SDS-PAGE under non-reducing conditions after 3 min or 20 min heating at 80 °C, 66 kDa and 18 kDa; subunit mass 15,521.11 Da by MALDI-TOF-MS.

For the substance “hRTL (Chondrilla australiensis tetramer lectin) (natural protein)”, the stoichiometry N came out at 4.

For the origin of these results see article PMC11433124.
